Test results as given in PMC12959268, “Mapping the nonribosomal specificity code through promiscuity-guided A-domain engineering” (Chemical Science, 2026).

Key:
Assay in all cases: MesG/hydroxylamine adenylation assay (pyrophosphate release)
Type in all cases: biochemical, Bacillus subtilis
Details in all cases: 5 mM ATP, 5 mM MgCl2, 150 mM hydroxylamine, pH 7.6, 30 °C
[1] = substrate: CC(C)C[C@H](N)C(=O)O
[2] = substrate: CSCC[C@H](N)C(=O)O
[3] = substrate: N[C@@H](Cc1ccccc1)C(=O)O

B1: SrfAC (Bacillus subtilis subsp. subtilis str. 168) (protein)
chain: MSQFSKDQVQDMYYLSPMQEGMLFHAILNPGQSFYLEQITMKVKGSLNIKCLEESMNVIMDRYDVFRTVFIHEKVKRPVQVVLKKRQFHIEEIDLTHLTGSEQTAKINEYKEQDKIRGFDLTRDIPMRAAIFKKAEESFEWVWSYHHIILDGWCFGIVVQDLFKVYNALREQKPYSLPPVKPYKDYIKWLEKQDKQASLRYWREYLEGFEGQTTFAEQRKKQKDGYEPKELLFSLSEAETKAFTELAKSQHTTLSTALQAVWSVLISRYQQSGDLAFGTVVSGRPAEIKGVEHMVGLFINVVPRRVKLSEGITFNGLLKRLQEQSLQSEPHQYVPLYDIQSQADQPKLIDHIIVFENYPLQDAKNEESSENGFDMVDVHVFEKSNYDLNLMASPGDEMLIKLAYNENVFDEAFILRLKSQLLTAIQQLIQNPDQPVSTINLVDDREREFLLTGLNPPAQAHETKPLTYWFKEAVNANPDAPALTYSGQTLSYRELDEEANRIARRLQKHGAGKGSVVALYTKRSLELVIGILGVLKAGAAYLPVDPKLPEDRISYMLADSAAACLLTHQEMKEQAAELPYTGTTLFIDDQTRFEEQASDPATAIDPNDPAYIMYTSGTTGKPKGNITTHANIQGLVKHVDYMAFSDQDTFLSVSNYAFDAFTFDFYASMLNAARLIIADEHTLLDTERLTDLILQENVNVMFATTALFNLLTDAGEDWMKGLRCILFGGERASVPHVRKALRIMGPGKLINCYGPTEGTVFATAHVVHDLPDSISSLPIGKPISNASVYILNEQSQLQPFGAVGELCISGMGVSKGYVNRADLTKEKFIENPFKPGETLYRTGDLARWLPDGTIEYAGRIDDQVKIRGHRIELEEIEKQLQEYPGVKDAVVVADRHESGDASINAYLVNRTQLSAEDVKAHLKKQLPAYMVPQTFTFLDELPLTTNGKVNKRLLPKPDQDQLAEEWIGPRNEMEETIAQIWSEVLGRKQIGIHDDFFALGGHSLKAMTAASRIKKELGIDLPVKLLFEAPTIAGISAYLKNGGSDGLQDVTIMNQDQEQIIFAFPPVLGYGLMYQNLSSRLPSYKLCAFDFIEEEDRLDRYADLIQKLQPEGPLTLFGYSAGCSLAFEAAKKLEEQGRIVQRIIMVDSYKKQGVSDLDGRTVESDVEALMNVNRDNEALNSEAVKHGLKQKTHAFYSYYVNLISTGQVKADIDLLTSGADFDMPEWLASWEEATTGVYRVKRGFGTHAEMLQGETLDRNAEILLEFLNTQTVTVS
notes: full module C-A-T-TE, C-terminal His6 tag, holo form, from pTrc99a-srfAC in E. coli HM0079
[1]
  Km: 13 ± 1 µM

B2: SrfAC (Bacillus subtilis subsp. subtilis str. 168; A660V/C752A/F702S) (protein)
chain: MSQFSKDQVQDMYYLSPMQEGMLFHAILNPGQSFYLEQITMKVKGSLNIKCLEESMNVIMDRYDVFRTVFIHEKVKRPVQVVLKKRQFHIEEIDLTHLTGSEQTAKINEYKEQDKIRGFDLTRDIPMRAAIFKKAEESFEWVWSYHHIILDGWCFGIVVQDLFKVYNALREQKPYSLPPVKPYKDYIKWLEKQDKQASLRYWREYLEGFEGQTTFAEQRKKQKDGYEPKELLFSLSEAETKAFTELAKSQHTTLSTALQAVWSVLISRYQQSGDLAFGTVVSGRPAEIKGVEHMVGLFINVVPRRVKLSEGITFNGLLKRLQEQSLQSEPHQYVPLYDIQSQADQPKLIDHIIVFENYPLQDAKNEESSENGFDMVDVHVFEKSNYDLNLMASPGDEMLIKLAYNENVFDEAFILRLKSQLLTAIQQLIQNPDQPVSTINLVDDREREFLLTGLNPPAQAHETKPLTYWFKEAVNANPDAPALTYSGQTLSYRELDEEANRIARRLQKHGAGKGSVVALYTKRSLELVIGILGVLKAGAAYLPVDPKLPEDRISYMLADSAAACLLTHQEMKEQAAELPYTGTTLFIDDQTRFEEQASDPATAIDPNDPAYIMYTSGTTGKPKGNITTHANIQGLVKHVDYMAFSDQDTFLSVSNYAFDVFTFDFYASMLNAARLIIADEHTLLDTERLTDLILQENVNVMSATTALFNLLTDAGEDWMKGLRCILFGGERASVPHVRKALRIMGPGKLINAYGPTEGTVFATAHVVHDLPDSISSLPIGKPISNASVYILNEQSQLQPFGAVGELCISGMGVSKGYVNRADLTKEKFIENPFKPGETLYRTGDLARWLPDGTIEYAGRIDDQVKIRGHRIELEEIEKQLQEYPGVKDAVVVADRHESGDASINAYLVNRTQLSAEDVKAHLKKQLPAYMVPQTFTFLDELPLTTNGKVNKRLLPKPDQDQLAEEWIGPRNEMEETIAQIWSEVLGRKQIGIHDDFFALGGHSLKAMTAASRIKKELGIDLPVKLLFEAPTIAGISAYLKNGGSDGLQDVTIMNQDQEQIIFAFPPVLGYGLMYQNLSSRLPSYKLCAFDFIEEEDRLDRYADLIQKLQPEGPLTLFGYSAGCSLAFEAAKKLEEQGRIVQRIIMVDSYKKQGVSDLDGRTVESDVEALMNVNRDNEALNSEAVKHGLKQKTHAFYSYYVNLISTGQVKADIDLLTSGADFDMPEWLASWEEATTGVYRVKRGFGTHAEMLQGETLDRNAEILLEFLNTQTVTVS
notes: as for B1
[1]
  Km: 510 ± 50 µM
[2]
  Km: 4600 ± 900 µM
[3]
  Km: 1300 ± 100 µM
